The record followed here is the RNAGym collection of RNA variant scans (doi:10.1093/molbev/msab373).

The labels stand for the following.
B1: Azoarcus group I ribozyme (parent)
chain: GUGCCUUGCGCCGGGAAACCACGCAAGGGAUGGUGUCAAAUUCGGCGAAACCUAAGCGCCCGCCCGGGCGUAUGGCAACGCCGAGCCAAGCUUCGGCGCCUGCGCCGAUGAAGGUGUAGAGACUAGACGGCACCCACCUAAGGCAAACGCUAUGGUGAAGGCAUAGUCCAGGGAGUGGCGAAAGUCACACAAACCGG

The series covers variants of B1. Briefly: reverse-splicing fitness (ratio to wild type); higher = more active; in vitro selection; Mg2+ level not given. The gist of the method:
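An in vitro group I ribozyme library with randomized positions was T7-transcribed and gel-purified. In triplicate, 10 pmol RNA in EPPS pH 7.5 was reacted with 50 pmoles of a 30-nt RNA substrate for 1 h at 37 °C across several added MgCl2 levels (1–48 mM), then stopped with EDTA. Products were reverse transcribed from a substrate-complementary primer, PCR-amplified and sequenced (HiSeq 4000). Fitness is a variant's read proportion after selection over that before, normalised to wild type.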
In the case of C82U A111C A120C A145G U176A, the reverse-splicing fitness worked out at 0.0134.

For C82A A120U A145U C150A C169A U176G, the reverse-splicing fitness was 0.00186. To C82G A145G C150U C169U U176G belongs 0.0045. Take C82U A120U A145C C150A C169U U176G: the reverse-splicing fitness amounted to 0.00151. Regarding C82U A111U A120C C150U C169A, the reverse-splicing fitness worked out at 0.00987. In the case of A111C A145C C150A C169U U176A, the reverse-splicing fitness is 0.0151. The figure for C82G A111G A120C C150A C169U U176A is 0.0165. A111G A120C A145U C150U C169U U176A: the reverse-splicing fitness stood at 0.0423.

With A111U A120G A145G C150A C169G U176G, the reverse-splicing fitness came out at 0.00526.

In the case of A111C A120G C150A U176A, the reverse-splicing fitness is 0.0175. On to C82A A120G A145G C150U C169G U176A, for which the reverse-splicing fitness is 0.0149. Consider A145G, for which the reverse-splicing fitness amounted to 0.958. Regarding C82U A145G C150U C169G U176A, the reverse-splicing fitness stood at 0.0129. To A120C A145U C150A C169U U176C belongs 0.0562; to C82G C169A U176G, 0.00463. To C82A A111G A145C C150A C169U U176C belongs 0.00831; to C82U A111C A120C C150U C169G U176A, 0.0121. With A111C A120C C150U C169A U176G, the reverse-splicing fitness amounted to 0.00561.

Take C82G A111C A120G A145G C150U C169G U176C: the reverse-splicing fitness was 0.0175.

Turning to C82U A111C C150U C169U U176A, the reverse-splicing fitness was determined as 0.0192. The figure for C82G C150A U176C is 0.0447.

On to A111U A120U A145G C150G C169U U176G, for which the reverse-splicing fitness was 0.00383. The figure for C82U A111U A145C C150U U176A is 0.0276; for C82U A145U C150G C169A U176C it is 0.00964. To C82G A111U C150G C169A belongs 0.0104; to C82G A120C A145U C150G C169A U176G, 0.00473; to C82A A111U A120G U176G, 0.00705. As to A120U C150G C169A U176G, the reverse-splicing fitness was determined as 0.00242. C82A A111C A120G A145G C150U C169G: the reverse-splicing fitness came out at 0.0106. The figure for A111C A120C A145G C150U C169U U176C is 0.0438; for C82U A111U A120U A145C U176G it is 0.00259. Take C82G A111U A120U C150A C169G U176C: the reverse-splicing fitness is 0.00406. On to C82G A120U A145G C150U U176A, for which the reverse-splicing fitness was found to be 0.0528. Regarding C82A A111G A120G A145U, the reverse-splicing fitness stood at 0.015.

With C82U A111G C150U C169G, the reverse-splicing fitness stood at 0.0092. To A111G A120U C150A C169G belongs 0.0107; to C82A A145G C150A C169A U176G, 0.00695. In the case of C82A A120G C150A C169A, the reverse-splicing fitness was 0.011. To A111G A120G C150A C169A belongs 0.0242; to A111G A120G C150A C169G, 0.0355; to C82A A111C A120G A145G C150A, 0.00888. The figure for C82U A111C A120G A145U C150A C169G U176A is 0.0105; for A111G A120C A145C C150A C169U U176A it is 0.016. To C82G A111C A120G C150A C169U belongs 0.00859; to C82G A120C C150U C169G, 0.00822; to C82G A111C A120U A145G C150A C169A, 0.00787. Take C82A A111C A120C A145U C150A C169G U176C: the reverse-splicing fitness worked out at 0.0188. With A120G A145G C150U C169G U176C, the reverse-splicing fitness is 0.216. Consider C82U A111C A120U A145C C150U C169G U176G, for which the reverse-splicing fitness stood at 0.00216. As for C82G A120U A145C C150A C169U U176A, the reverse-splicing fitness stood at 0.0023. To C82G A111U A120U A145U C169G U176G belongs 0.00186; to C82G A120G C150A C169G U176C, 0.0228; to C82U A120C A145U C150U U176G, 0.00795. The figure for C82A A111G A120U C150A C169A U176G is 0.00194; for C82U A111U A145G C150G C169A it is 0.00815; for A111C A145G C150G C169A U176G it is 0.00766. For the variant A111C A120U A145U C150G C169G U176G, the reverse-splicing fitness amounted to 0.00233. C82U A120U C150U C169U U176A: the reverse-splicing fitness was 0.00407.

For the variant A111C A120G A145G C150U C169A, the reverse-splicing fitness stood at 0.0989. The figure for C82U A120C C150A C169U U176A is 0.0175; for C82U A120C A145C C150G C169G U176C it is 0.00518; for C82U A111C A120G C150U it is 0.0115.

For the variant A111G A120G A145U C169G U176A, the reverse-splicing fitness was found to be 0.0761. The figure for C82G A111G A120U C150A C169U U176A is 0.00523; for C82G A111U A120C A145C C169A U176A it is 0.0193; for C82G A111U A120U A145C C150G C169G U176C it is 0.00235. C82G A111C A120C C169U U176C: the reverse-splicing fitness was determined as 0.0163. The figure for C82G A111C A120C C169U U176A is 0.0183; for C82G A120C it is 0.208; for A111C A120U C150A U176G it is 0.0153. As for A111G A145U C150U C169U U176A, the reverse-splicing fitness came out at 0.0375.

C82G A111G A120U A145C C150U C169U U176C: the reverse-splicing fitness came to 0.00268. As for C82G A111U A120G A145U C150G C169U, the reverse-splicing fitness worked out at 0.00825.

Consider A111U A120C A145G C150G U176C, for which the reverse-splicing fitness is 0.0344.

On to C82A A111U A145G C150U C169A U176G, for which the reverse-splicing fitness was 0.00694. For C82A A111U A120U A145C C150U C169U, the reverse-splicing fitness came to 0.00328. With C82A A120C C150G C169A U176A, the reverse-splicing fitness was determined as 0.0126. As to C82A A120C A145C C169A U176A, the reverse-splicing fitness came to 0.015. To C82U A111C A120G A145U C169U belongs 0.00765; to C82G A120C A145C C150G, 0.0227.

As to C82A A145C C150U C169A U176C, the reverse-splicing fitness stood at 0.00606.

On to C82A A111C A120G A145G C150U U176C, for which the reverse-splicing fitness was 0.0186. To C82U A111C A120C A145G C150A C169U belongs 0.0103; to C82U C150U U176G, 0.0675.
